Self-cleavage data for 41 variants are collected here from the RNAGym collection of RNA variant scans (doi:10.7554/elife.90254).

B1: OR4K15 (parent)
chain: GUUAACGGUCAUAGGCCAUGGAAACUAGGAGCACCAUUUCGCUGCCAGUGAAGAAAUGAACAAAGAAAAUCUGGGCCAGGCAGGCAUCAAAAGAAAUAGUCUUGCGCUCAACCAGAAAGUCUGUAAUCAUUUUAAGGGUA

This data set covers variants of B1. Briefly: self-cleavage, relative activity (ratio to wild type); higher = more cleavage; in vitro, sequencing; the parent is a self-cleaving ribozyme.
With GUUAACGGUCAUAGGCCAUGGAAACUAGGAGCACCAUUUCGCUGCCAGUGAAGACAUGAACAAAGAAAAUCUGGGCCAGGCAGGCAUCAAAAGAAAUAGUCUUGCGCUCAACCAGAAAGUCUGUAAUCGUUUUAAGGGUA [A55C A129G], the self-cleavage turned out to be 1.2. With GUUAACGGUCAUAGGCCAUGGAAACUAGGAGCACCAUUUCGCUGCCAGUGAAGAGAUGAACAAAGAAAAUCUGGGCCAGGCAGGCGUCAAAAGAAAUAGUCUUGCGCUCAACCAGAAAGUCUGUAAUCAUUUUAAGGGUA [A55G A86G] the figure was 1.17; with GUUAACGGUCAUAGGCCAUGGAAACUAGGAGCACCAUUUCGCUGCCAGUGAAGAGAUGAACAAAGAAAAUCUGGGCCAGGCAGGCAUCAAAAGCAAUAGUCUUGCGCUCAACCAGAAAGUCUGUAAUCAUUUUAAGGGUA [A55G A94C], 1.34. With GUUAACGGUCAUAGGCCAUGGAAACUAGGAGCACCAUUUCGCUGCCAGUGAAGAGAUGAACAAAGAAAAUCUGGGCCAGGCAGGCAUCAAGAGAAAUAGUCUUGCGCUCAACCAGAAAGUCUGUAAUCAUUUUAAGGGUA [A55G A91G] the figure was 0.98. With GUUAACGGUCAUAGGCCAUGGAAACUAGGAGCACCAUUUCGCUGCCAGUGAAGAGAUGAACAAAGAAAAUCUGGGCCAGGCAGGCAUCAAAAGACAUAGUCUUGCGCUCAACCAGAAAGUCUGUAAUCAUUUUAAGGGUA [A55G A95C] the figure was 1.02; with GUUAACGGUCAUAGGCCAUGGAAACUAGGAGCACCAUUUCGCUGCCAGUGAAGAGAUGAACAAAGGAAAUCUGGGCCAGGCAGGCAUCAAAAGAAAUAGUCUUGCGCUCAACCAGAAAGUCUGUAAUCAUUUUAAGGGUA [A55G A66G], 1.4. As for GUUAACGGUCAUAGGCCAUGGAAACUAGGAGCACCAUUUCGCUGCCAGUGAAGAGAUGAACAAAGAAAAUCUGGGCCAGGCAGGCAUCAAAAGAAAUAGUCUUGCGCUCAGCCAGAAAGUCUGUAAUCAUUUUAAGGGUA [A55G A111G], the self-cleavage stood at 0.03.

As to GUUAACGGUCAUAGGCCAUGGAAACUAGGAGCACCAUUUCGCUGCCAGUGAAGAGAUGAACACAGAAAAUCUGGGCCAGGCAGGCAUCAAAAGAAAUAGUCUUGCGCUCAACCAGAAAGUCUGUAAUCAUUUUAAGGGUA [A55G A63C], the self-cleavage was found to be 0.12. The same measure for GUUAACGGUCAUAGGCCAUGGAAACUAGGAGCACCAUUUCGCUGCCAGUGAAGACAAGAACAAAGAAAAUCUGGGCCAGGCAGGCAUCAAAAGAAAUAGUCUUGCGCUCAACCAGAAAGUCUGUAAUCAUUUUAAGGGUA [A55C U57A]: 1.84; for GUUAACGGUCAUAGGCCAUGGAAACUAGGAGCACCAUUUCGCUGCCAGUGAAGAGAUGAACAAAGAAAAUCUGGGCCAGGCAGGCAUCGAAAGAAAUAGUCUUGCGCUCAACCAGAAAGUCUGUAAUCAUUUUAAGGGUA [A55G A89G]: 0.59. In the case of GUUAACGGUCAUAGGCCAUGGAAACUAGGAGCACCAUUUCGCUGCCAGUGAAGAGAUGAACAAAGAAAAUCUGGGCCAGGCAGGCAUCUAAAGAAAUAGUCUUGCGCUCAACCAGAAAGUCUGUAAUCAUUUUAAGGGUA [A55G A89U], the self-cleavage was found to be 1.55. The same measure for GUUAACGGUCAUAGGCCAUGGAAACUAGGAGCACCAUUUCGCUGCCAGUGAAGAGAUGAACAAAGAAAAUCUGGGCCAGGCAGGCAUCAAAAGAAAUAGUCUUGCGCUCCACCAGAAAGUCUGUAAUCAUUUUAAGGGUA [A55G A110C]: 0.2; for GUUAACGGUCAUAGGCCAUGGAAACUAGGAGCACCAUUUCGCUGCCAGUGAAGACAUGAACAAAGAAAAUCUGGGCCAGGCAGGCAUCAAAAGAAAUAGUCUUGCGCUCAACCAGAAAGUCUGUAAUCAUUUUAAGGGUA [A55C]: 0.94. With GUUAACGGUCAUAGGCCAUGGAAACUAGGAGCACCAUUUCGCUGCCAGUGAAGAGAUGAACAAAGAAAAUCUGGGCCAGGCAGGCAUCAAAAGAAAUAGUCUUGCGCUCAACCAGAAAGUCUGUAAUCAUUUUAAGGGUA [A55G] the figure was 1.06; with GUUAACGGUCAUAGGCCAUGGAAACUAGGAGCACCAUUUCGCUGCCAGUGAAGUAAUGAACAAAGAAAAUCUGGGCCAGGCAGGCAUCAAAAGAAAUAGUCUUGCGCUCAACCAGAAAGUCUGUAAUCAUUUUAAGGGCA [A54U U139C], 1.45.

For the variant GUUAACGGUCAUAGGCCAUGGAAACUAGGAGCACCAUUUCGCUGCCAGUGAAGAGAUGUACAAAGAAAAUCUGGGCCAGGCAGGCAUCAAAAGAAAUAGUCUUGCGCUCAACCAGAAAGUCUGUAAUCAUUUUAAGGGUA [A55G A59U], the self-cleavage worked out at 1.13. The same measure for GUUAACGGUCAUAGGCCAUGGAAACUAGGAGCACCAUUUCGCUGCCAGUGAAGAGAUGAACAAAGAAAAUCUGGGCCAGGCAGGCAUCAAAAGAAAUAGUCUUGCGCUCAACCGGAAAGUCUGUAAUCAUUUUAAGGGUA [A55G A114G]: 0.32; for GUUAACGGUCAUAGGCCAUGGAAACUAGGAGCACCAUUUCGCUGCCAGUGAAGAGAUGAACAAAGAAAAUCUGGGCCAGGCAGGCAUCAUAAGAAAUAGUCUUGCGCUCAACCAGAAAGUCUGUAAUCAUUUUAAGGGUA [A55G A90U]: 2.14; for GUUAACGGUCAUAGGCCAUGGAAACUAGGAGCACCAUUUCGCUGCCAGUGAAGAGAUGAACAAAGAAAAUCUGGGCCAGGCAGGCAUCAGAAGAAAUAGUCUUGCGCUCAACCAGAAAGUCUGUAAUCAUUUUAAGGGUA [A55G A90G]: 0.76.

As to GUUAACGGUCAUAGGCCAUGGAAACUAGGAGCACCAUUUCGCUGCCAGUGAAGAGAUGAACAAAGAAAAUCUGGGCCAGGCAGGCAUCAAAAGAAAUAGUCUUGCGCUCAACCAGAGAGUCUGUAAUCAUUUUAAGGGUA [A55G A117G], the self-cleavage was 0.76.

As for GUUAACGGUCAUAGGCCAUGGAAACUAGGAGCACCAUUUCGCUGCCAGUGAAGAGAUGAACAAAGAAAUUCUGGGCCAGGCAGGCAUCAAAAGAAAUAGUCUUGCGCUCAACCAGAAAGUCUGUAAUCAUUUUAAGGGUA [A55G A69U], the self-cleavage came to 0.23. The same measure for GUUAACGGUCAUAGGCCAUGGAAACUAGGAGCACCAUUUCGCUGCCAGUGAAGAGAUGAACAAAGAAAGUCUGGGCCAGGCAGGCAUCAAAAGAAAUAGUCUUGCGCUCAACCAGAAAGUCUGUAAUCAUUUUAAGGGUA [A55G A69G]: 0.78. With GUUAACGGUCAUAGGCCAUGGAAACUAGGAGCACCAUUUCGCUGCCAGUGAAGAGAUGAACAAAGAAAAUCUGGGCCAGGCUGGCAUCAAAAGAAAUAGUCUUGCGCUCAACCAGAAAGUCUGUAAUCAUUUUAAGGGUA [A55G A82U] the figure was 0.22; with GUUAACGGUCAUAGGCCAUGGAAACUAGGAGCACCAUUUCGCUGCCAGUGAAGAGAUGAACAAAGAAAAUCUGGGCCAGGCGGGCAUCAAAAGAAAUAGUCUUGCGCUCAACCAGAAAGUCUGUAAUCAUUUUAAGGGUA [A55G A82G], 0.83. With GUUAACGGUCAUAGGCCAUGGAAACUAGGAGCACCAUUUCGCUGCCAGUGAAGAGAUGAACAAUGAAAAUCUGGGCCAGGCAGGCAUCAAAAGAAAUAGUCUUGCGCUCAACCAGAAAGUCUGUAAUCAUUUUAAGGGUA [A55G A64U] the figure was 2.41; with GUUAACGGUCAUAGGCCAUGGAAACUAGGAGCACCAUUUCGCUGCCAGUGAAGAGAUGAACAAGGAAAAUCUGGGCCAGGCAGGCAUCAAAAGAAAUAGUCUUGCGCUCAACCAGAAAGUCUGUAAUCAUUUUAAGGGUA [A55G A64G], 0.88.

Regarding GUUAACGGUCAUAGGCCAUGGAAACUAGGAGCACCAUUUCGCUGCCAGUGAAGAGAUGAACAAAGAAAAUCUGGGCCAGGCAGGCAUCAAAAGAAAUAGUCUUGCGCUCAACCAGAAAGUCUGUGAUCAUUUUAAGGGUA [A55G A125G], the self-cleavage amounted to 0.45.

GUUAACGGUCAUAGGCCAUGGAAACUAGGAGCACCAUUUCGCUGCCAGUGAAGACAUGAACAAAGAAAAUCUGGGCCAAGCAGGCAUCAAAAGAAAUAGUCUUGCGCUCAACCAGAAAGUCUGUAAUCAUUUUAAGGGUA [A55C G79A]: the self-cleavage stood at 0.49. With GUUAACGGUCAUAGGCCAUGGAAACUAGGAGCACCAUUUCGCUGCCAGUGAAGAGAUGAACAAAGAAAAUCUGGGCCAGGCAGGCAUCAAAAGAAAUCGUCUUGCGCUCAACCAGAAAGUCUGUAAUCAUUUUAAGGGUA [A55G A98C] the figure was 1.25; with GUUAACGGUCAUAGGCCAUGGAAACUAGGAGCACCAUUUCGCUGCCAGUGAAGAGAUGAACUAAGAAAAUCUGGGCCAGGCAGGCAUCAAAAGAAAUAGUCUUGCGCUCAACCAGAAAGUCUGUAAUCAUUUUAAGGGUA [A55G A62U], 1.41; with GUUAACGGUCAUAGGCCAUGGAAACUAGGAGCACCAUUUCGCUGCCAGUGAAGAGAUGAACAAAGAAAAUCUGGGCCAGGCAGGCAUCAAAAGAAAUAGUCUUGCGCUCAACCAGUAAGUCUGUAAUCAUUUUAAGGGUA [A55G A116U], 0.27. The same measure for GUUAACGGUCAUAGGCCAUGGAAACUAGGAGCACCAUUUCGCUGCCAGUGAAGACAUGAACAAAGAAAAUCUGGGCCAGGCAGGCAUCAAAAGAAAUAGUCUUGCGCUCAACCAGAAAGUCUGUAGUCAUUUUAAGGGUA [A55C A126G]: 1.09; for GUUAACGGUCAUAGGCCAUGGAAACUAGGAGCACCAUUUCGCUGCCAGUGAAGAGAUGAACAAAGAAAAUCUGGGCCAGGCAGGCAUCAAAAGAAUUAGUCUUGCGCUCAACCAGAAAGUCUGUAAUCAUUUUAAGGGUA [A55G A96U]: 1.11.

On to GUUAACGGUCAUAGGCCAUGGAAACUAGGAGCACCAUUUCGCUGCCAGUGAAGACAUGAACAAAGAAAAUCUGGGCCAGGCAGGCAUCAAAAGAAAUAGUCUUGCGCUCGACCAGAAAGUCUGUAAUCAUUUUAAGGGUA [A55C A110G], for which the self-cleavage came to 1.02. The same measure for GUUAACGGUCAUAGGCCAUGGAAACUAGGAGCACCAUUUCGCUGCCAGUGAAGACAUGAACAAAGAAAAUCUGGGCCAGGCAGGCAUCAAAAGAAAUAGUCUUGCACUCAACCAGAAAGUCUGUAAUCAUUUUAAGGGUA [A55C G106A]: 0.02. With GUUAACGGUCAUAGGCCAUGGAAACUAGGAGCACCAUUUCGCUGCCAGUGAAGACAUGAACAAAGAAAAUCUGGGCCCGGCAGGCAUCAAAAGAAAUAGUCUUGCGCUCAACCAGAAAGUCUGUAAUCAUUUUAAGGGUA [A55C A78C] the figure was 0.25; with GUUAACGGUCAUAGGCCAUGGAAACUAGGAGCACCAUUUCGCUGCCAGUGAAGAGAUGAACAAAGAAAAUCUGGGCCAGGCAGGCAUCAAAAGAAAUAGUCUUGCGCUCAACCAGAAAGUCUGUAGUCAUUUUAAGGGUA [A55G A126G], 0.33. As to GUUAACGGUCAUAGGCCAUGGAAACUAGGAGCACCAUUUCGCUGCCAGUGAAGAGAUGAACAAAGAAAAUCUGGGCCAGGCAGGCAUCAAAAGAAAUAGUCUUGCGCUCAACCAGAAAGUCUGUAUUCAUUUUAAGGGUA [A55G A126U], the self-cleavage was determined as 0.86. The same measure for GUUAACGGUCAUAGGCCAUGGAAACUAGGAGCACCAUUUCGCUGCCAGUGAAGACAUGUACAAAGAAAAUCUGGGCCAGGCAGGCAUCAAAAGAAAUAGUCUUGCGCUCAACCAGAAAGUCUGUAAUCAUUUUAAGGGUA [A55C A59U]: 1.8. The same measure for GUUAACGGUCAUAGGCCAUGGAAACUAGGAGCACCAUUUCGCUGCCAGUGAAGACAUGAACAAAGAAAAUCUGGGCCAGGCAGGCAUCAAAAGAAAUAGUCUAGCGCUCAACCAGAAAGUCUGUAAUCAUUUUAAGGGUA [A55C U103A]: 0.38; for GUUAACGGUCAUAGGCCAUGGAAACUAGGAGCACCAUUUCGCUGCCAGUGAAGAGAUGAACAAAGAAAAUCUGGGCCAGGCAGGCAUCAAAUGAAAUAGUCUUGCGCUCAACCAGAAAGUCUGUAAUCAUUUUAAGGGUA [A55G A92U]: 1.65.
